Measured values from publication PMC11067741, “Crystal structure of human peptidylarginine deiminase type VI (PAD6) provides insights into its inactivity” (IUCrJ, 2024).

Target: the molecule itself
Assay: SEC; analytical SEC on Superdex 200 increase 5/150GL, 20 mM Tris-HCl pH 7.5, 200 mM NaCl, 1 mM TCEP; PAD6 at 1 mg/ml, 0.3 ml/min; calibrated with protein standards

B1: recombinant human peptidylarginine deiminase type VI (PAD6) V2-P694 S10E S446E (enzyme, UniProt Q6TGC4 2-694, looked up)
chain: VSVEGRAMEFQSIIHLSLDSPVHAVCVLGTEICLDLSGCAPQKCQCFTIHGSGRVLIDVANTVISEKEDATIWWPLSDPTYATVKMTSPSPSVDADKVSVTYYGPNEDAPVGTAVLYLTGIEVSLEVDIYRNGQVEMSSDKQAKKKWIWGPSGWGAILLVNCNPADVGQQLEDKKTKKVIFSEEITNLSQMTLNVQGPSCILKKYRLVLHTSKEESKKARVYWPQKDNSSTFELVLGPDQHAYTLALLGNHLKETFYVEAIAFPSAEFSGLISYSVSLVEESQDPSIPETVLYKDTVVFRVAPCVFIPCTQVPLEVYLCRELQLQGFVDTVTKLSEKSNSQVASVYEDPNRLGRWLQDEMAFCYTQAPHKTTSLILDTPQAADLDEFPMKYSLSPGIGYMIQDTEDHKVASMDSIGNLMVSPPVKVQGKEYPLGRVLIGSSFYPEAEGRAMSKTLRDFLYAQQVQAPVELYSDWLMTGHVDEFMCFIPTDDKNEGKKGFLLLLASPSACYKLFREKQKEGYGDALLFDELRADQLLSNGREAKTIDQLLADESLKKQNEYVEKCIHLNRDILKTELGLVEQDIIEIPQLFCLEKLTNIPSDQQPKRSFARPYFPDLLRMIVMGKNLGIPKPFGPQIKGTCCLEEKICCLLEPLGFKCTFINDFDCYLTEVGDICACANIRRVPFAFKWWKMVP
notes: human peptidylarginine deiminase type VI (PAD6), residues V2-P694, called a full-length construct, with the phosphomimetic mutations S10E and S446E; also called phosphomimetic PAD6; human PAD6 phosphomimic mutant; source: HEK cells, transient transfection, purified (glutathione Sepharose, TEV cleavage, reverse HisTrap, Superdex 200); not shown: His6, N-terminal, cleaved; GST, N-terminal, cleaved
  stoichiometry N: 2
